Source: the DeepSol protein solubility set

Assay: soluble on expression in E. coli; label from the status in PepcDB or PDB records

Sequence	soluble on expression in E. coli
MAHHHHHHMEEGAPTPAAPVGEDQEVAAAPATEEPASIMQVENTNFNWADDDIQFQIRQPQYAAEYPVSVLENLARNVTFKVPEDQNTMTSAIEALARERQAFEQMKRNHEDAMKSREVELNAQEATLQARERQLHANTETLAAERQQLILQQSQFRAQQAQAQAQSQAQAQTQSQPRTSSQTQSPAAQVSPSPAQAAQPAHAPQLQHQMPPPHQQPQPRSGNVYMGGGYGAQEWQPDQRTWGNEGAMGAPGFDMYQGAYPGSYAQRNYHMAGGHRGQMRSGNLPQQQFPGNRMQPMMPPPQQYSRSMAPLGAARQQQMDMNFGGRSQQSYNPAPNTGYPQRSAQW	soluble
MAHHHHHHMEKLREHSERPVPDMLVLPLTASLPQEVQSRVFEPTPPRCRKVVLATNVAETSITITNLYFVVDSGFCKQNVFDPKTGMEQLKIVPISQAQAQQRAGRAGRIGPGKCFRMYTELQFQMDMEPATVPDIQRSNLFHVVLQLKAMGINDLFALDLMDPPPQETLVSALQKLRYLEALDDDGLLTPLGGRMAQLPIDPSQSKTLLTAVDMGCCEPVLTIVSMLAVQKRGVFYRPRDQHEASDAAKRQFHQPEGDQITLLAVYDAWVANGLSEEWCKRNFLKHRILMEARDTREQLSDMLHKRHASIPHHNDDALTEVRRAITAGYFFNVAKRITDVAYATLAERREVYVHPSSCLRDAPPKYVLYNELQLTNREYMRELLVIEPQWLVELAPAFYSRPRKGKLTKEQRAERLNPILRAWENGSSWRISKLRRRK	not soluble
MAHHHHHHMENEALKEQEGEENKRILVLHKRYREGPFENRLRFECELEFVQSLSNIDYIKHLYENKYFSDKRFLNYLKYLNYWRTKPYIFYIHFPICLYVLEILNDGKIDEYFSKESSFNNFVYYLKLHWLFYSYQI	not soluble
MAHHHHHHMENILSKVDKIEPFDPKVKEQYNQFKYDVTKQAIESLRERIPQRIIYFNTLVNVNAEPGSILDVRDLDTKTYKYTSNQTEENARKKHKTSDHNVTEKKKDSIEMNTQNDINYEEKKIVIDENIIYTHYVPSHKQISAELEKIKAYSSELIEIIGNIKLWIQLNVPRIEDGNNFGVGIQEEAIQELARVEESAFNLYDAIVKYYMDRAKLATKVIKYPNVHDYQEAVQELDKKEWIHIKITIIDMRNNYIMLYDLLCKNWEKVVKPKNEDAHHRMTF	soluble
MAHHHHHHMENINRVNKYDNPNEAIKNMVDKIINKKEMMKYFLDAQDIFEYHDVGKKGEVDITLFPKMARQLKQVYDIRDINNFKKEMKIKKIYKMDLQLFFTLLKRKILYSINNSNNNENDNSSFRQHYDILDMKKKQLLDVDELRTYLGLMGDKINPDDFNILLRYNLINNHRINKDDIVLDENKEIKNISFNAYVDMLTCYKYI	not soluble
MAHHHHHHMEPSTLPYITRDVATEPPTTIAIVSCGGQPPELSGKDETMFAVTEDCVEPTKGWINREGKPLLTVCFMHSFGKCVGRTSSNPATCFQIHIKANVLNALRKHYTNPTRRFFTRTVKAMLSPELRRLLCMRAHKEFKVQYLEYRVSDIFPSTGLLQYEAAYRRWLFSDDTNAEHAGTITVLQCLQFSMTGSCDSSTDCPYIHADLKKAQARDPMLARALRDVSDANQGLPTVSIRVPELLPAGHSSTICPADATYATLTDGANLQSGMPSDPARDFTKVPAFTLVYGEGESGGRCVPLQMHQRESSSSSAGGHANSTYPLSHVPFINQDDPASEMTAAKSQPTSGKNEKASVSGKSGSGWVNNSNEGAGSINNHTGSCGSGTD	not soluble
MAHHHHHHMETTAEEISAMLNENEHALIGELQGKYDFINFNEMKNYKEKKLHHELTLEVQKFINNKNVQVKDKFRLFYTLLSPLMSKLKKTIYAELLYIVTANFDANWTISYLKESEKNLENDKDAIIIYRCILILKYIELGDFKSCENEIENTKNLLQGVIGLNVVAHKFYNFAIMKYYNVLNKSDLFVKYALLYLAYTPLNDLDEADKIEIGTHICMHSIISEDVYNIGEIIQLPLINVCLKNNEQTNWLYQLIYIYNEGNIEVFNQVVHKYEENIKNSLLKDYKKNMIKKITLLALMDLAFKKKKQRSDISFEEIAQHCKVDVNEVEKMLITAKSKNILTCQIDEIQKSVKITWVKPRVLNNEKIFFMKESIDKWITHSKNLLTYMEDLSVELLIS	not soluble
MAHHHHHHMEVREGEPPQSWTYKAVCMTLEKDDGVEQSGAPRLRLMVLTSEKGWPYSWRWKENKSTRDCHVNCEVDRVWRTVKGDLTKWFSRRAKNKLSPRRRLLVGTPWIGNSMAADSYLLYQLLHGDAEKLQVAVYSFGSQSFLFDKTTQAVREYVDTTKSKRVFFFWQL	soluble
MAHHHHHHMFKQRDNEYHPPMTVDPSGGGVTTSAGVFGEVGMGNVASPFLDGPAAVAGSRKRGRDIRSLDRFRAVVYGEDGFRRLHAMVARNPVLMYPPDGIEAARARVMVRKAELQSQLRSALGHREHNRNPADNGDDDVFALFEARRRAESDVHPATEGEEVPRQPASEHAPLPSSLASIRQDEELATYHHKQLDSYLRLLYEFNHATFVKLPMEDTLRLLSRCGKEAVAHIVEYETQVRLRRQSRIRDLNELRQEQAALEERRLAIDDAEQARLVQSAELRQAELDLELDNGVVKAEPPDDGSADEDVKVILETSSSSVHFASLPAGDSPEENMDGIVMAVEDEGIQYT	not soluble
MAHHHHHHMFRSEAHFRMLANLRFLELQKLLLNRFQIFKNEEITVLKKGSMKTILYEWAEFLTKEQRATNMTHIPDEVLQSKRVADILRDDVECRWLVGRINVGAVSGVSGVSPPSPLSGAHLARDDAALSKVDQLHLDEYPDLFHYEYPQFPYDYYDKKKMSNFYSLMKFPYNDILNISKRIKREVSPPGGDAKEGEMRQMEEPRGGALESAGVDVVDDDFVSYSSNSYVYAPSEMETSKENYHE	not soluble
MAHHHHHHMFSEPVYLTIGDEYEKRAVKPSKSRGRNFIVPVKRSPHITDAVFQKSFISLAVGDEYLPPPPGGTFRQPAEKKPGEPQPLPFKPPSRPHKSCGSGSYYGTFNEKNPPKHEPETTIAEVKKSGANAPAGTVRKPNLYTNPGKKGTYGYTGLTLGRAGEVQYISDPVGCCSGQRTHSPRTQAPFSAAVKCGGCFDEGPHGFSTVYGMNKPLPMRKVPPQRVLPPMKPWRPAGALVREITRHPEYQEDPYDLKEKRLREERLKEQSHKPWFPCGTDAYRHIYTYPVPYNPPPVV	not soluble
MAHHHHHHMFSSSTGAGAAAAAKPSAGPPSVALATVTVNEDPNIEVLLASKRIQKLTRATDALIARDFVLREEEAILDDLEAYIISLESEVRKAEFQTEELRSRSSLLRPGKRCAIAGENVELSALWNAYGSDMGYLVKRHSLRLAVLEKALATVSTRNPELPVPKPLPPPPVTKTSKTMSAMRDMSQRQKAPS	not soluble
MAHHHHHHMFYVDACSQNYRMPNSAPVFSQGFPQPNRAPSLVSPNDVQNCTNDGLVNPHQAPLFTVSQQGSVVAASVLPRTVLWTANGMYGVTQMREGPEEGATRFVPSKSPDGTPVSAMQSMFLPPMQQQQQQQQQASNCPLLYILTTVAVPQTYPQTSLQEQKSQHVTPVTHQIISMKGPSVAPSQSIGINTLNPSCITNNSDAMQTCGSGSKVNVNVVCRHFIKSCCNRRKCRFLHTLNEAPLANI	not soluble
MAHHHHHHMGDHLGSRFTVIEQIGSGNYGSLYRVIDGEAATLADRIIATKKLQDTINHPHVLREVSAQRHAQKCSPHIVKLLHVVPRDRVRAALVLEYVPLDLRTFLNAFYCNQAKSSAPTWCATAGADELKSAAAPPCHIPLIYVRRMLRGLIEALHCLHARGIAHRDVKPENILVEPLGLGHPLRCVCPPMGSFGPAGEAAGCWVHAPHCPDPRQEERGVTRPMQPQGTLEPCQFFRRYSVALHHELTGDELASAIHRLHCETCRPCPCARAGAGKHAPQQHRDSSEMKTGNSCAQERQADAVDEESPANVDDGEADKLTAPMSPPLMPDVKLCDFGSARHIGTLRLRSAEEQREELTPGPTTPVYCAPEMMLLQRYGTSVDMWAVGAILFEMLTGEFFLGVGTLRSFSGDVVVRDDYCVMHRLNRMFRHLGTPSVEEWRCIAHPHYYPDEMLAHLPQVRDAALFRCLAQPIDTDGSFRRDSGDIKSNGDAKTADVQTDLNVRPSAGTCSCAQAPVNGTTDSHAARASAPPRDATAARHPLNVSDFLYQHIGESGVDFLRSLLRYDPAKRMTSAEALRHPFLSPEVANM	not soluble
